Numbering of substitutions follows the chain as printed. Names and notes keep the numbering of the source.
Columns and labels:
[1] = target: the molecule itself; assay: AUC; fluorescence-detected sedimentation velocity, Oregon Green-labelled FICD 1.6 µM to 31 pM, 20 °C, 50 mM HEPES-KOH pH 7.4, 150 mM KCl, 10 mM MgCl2, 1 mM CaCl2, 0.3 mM TCEP, 0.1% Tween-20, 0.15 mg/ml BSA; monomer-dimer fit (dimer to monomers)
[2] = target: T1, biotinylated AviTag-haBiP^V461F(19-654), AMPylated (Chinese hamster, UniProt G3I8R9 19-654, V461F, AMP on Thr518 (AMPylation); biotin on the AviTag); assay: BLI; biotinylated AMPylated or unmodified BiP immobilised on streptavidin biosensors; FICD His363Ala variants in solution at 250 nM; HKM plus 0.05% Triton X-100, 30 °C (Figure S2G); conditions: both partners purified
T1 construct: Chinese hamster BiP (haBiP), aa 19-654; also called BiP-AMP; AMPylated BiP; not shown: GST, N-terminal, cleaved; AviTag, N-terminal, kept

[3] = target: T2, biotinylated AviTag-FICD(104-458)^H363A (human, UniProt Q9BVA6 104-458, H363A, biotin on the AviTag); assay: BLI; dimer dissociation: biotinylated AviTag-FICD(104-458)^H363A (3 nM) pre-incubated with FICD^H363A (300 nM), loaded on streptavidin biosensors; dissociation by infinite dilution into HKTx buffer ± nucleotide at 5 mM, 30 °C; mono-exponential fit; conditions: both partners purified
T2 construct: human FICD (HYPE), aa 104-458; Expression, purification and biotinylation of this construct are not described; also called N-terminally biotinylated FICD^H363A; UK 2422; not shown: AviTag, N-terminal, kept
T2 sequence (looked up): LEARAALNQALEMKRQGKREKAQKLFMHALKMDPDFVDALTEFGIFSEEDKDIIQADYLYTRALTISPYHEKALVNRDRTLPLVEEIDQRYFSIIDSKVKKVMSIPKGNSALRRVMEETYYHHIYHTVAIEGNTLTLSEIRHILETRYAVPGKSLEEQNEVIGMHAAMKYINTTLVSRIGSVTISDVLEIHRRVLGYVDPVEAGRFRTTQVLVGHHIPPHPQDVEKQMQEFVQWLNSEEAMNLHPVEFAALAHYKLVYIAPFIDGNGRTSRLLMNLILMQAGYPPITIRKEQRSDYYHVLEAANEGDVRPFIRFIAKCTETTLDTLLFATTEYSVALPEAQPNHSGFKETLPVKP

[4] = target: T3, biotinylated AviTag-haBiP(28-635)^T229A-V461F (Chinese hamster, UniProt G3I8R9 28-635, T229A | V461F, biotin on the AviTag); assay: BLI; biotinylated BiP^T229A-V461F(28-635) immobilised on streptavidin biosensors and pre-saturated with ATP (2 mM); FICD His363Ala variants at 250 nM, without or with nucleotide (ATP 8 mM, ADP 2 mM); HKM plus 0.05% Triton X-100, 30 °C; conditions: both partners purified
T3 construct: Chinese hamster BiP (haBiP), aa 28-635; the assay tells the nucleotide state; also called BiP^T229A-V461F:Apo; BiP:ATP; not shown: GST, N-terminal, cleaved; AviTag, N-terminal, kept

[5] = target: the molecule itself; assay: SEC; analytical SEC, SEC-3 HPLC column, HKMC buffer (50 mM HEPES-KOH pH 7.4, 150 mM KCl, 10 mM MgCl2, 1 mM CaCl2), 25 °C; FICD at 20 µM, or 0.2-50 µM after 16 h at 25 °C (Figure S1D-E); approximate Kd of dimer to monomers from elution peak times
[6] = target: the molecule itself; assay: crystal structure; sitting drop vapour diffusion, FICD at 9 mg/ml in 10 mM Tris-HCl pH 8.0, 150 mM NaCl, 1 mM TCEP, ± 10 mM MgATP

T1 sequence (G3I8R9 19-654 V461F): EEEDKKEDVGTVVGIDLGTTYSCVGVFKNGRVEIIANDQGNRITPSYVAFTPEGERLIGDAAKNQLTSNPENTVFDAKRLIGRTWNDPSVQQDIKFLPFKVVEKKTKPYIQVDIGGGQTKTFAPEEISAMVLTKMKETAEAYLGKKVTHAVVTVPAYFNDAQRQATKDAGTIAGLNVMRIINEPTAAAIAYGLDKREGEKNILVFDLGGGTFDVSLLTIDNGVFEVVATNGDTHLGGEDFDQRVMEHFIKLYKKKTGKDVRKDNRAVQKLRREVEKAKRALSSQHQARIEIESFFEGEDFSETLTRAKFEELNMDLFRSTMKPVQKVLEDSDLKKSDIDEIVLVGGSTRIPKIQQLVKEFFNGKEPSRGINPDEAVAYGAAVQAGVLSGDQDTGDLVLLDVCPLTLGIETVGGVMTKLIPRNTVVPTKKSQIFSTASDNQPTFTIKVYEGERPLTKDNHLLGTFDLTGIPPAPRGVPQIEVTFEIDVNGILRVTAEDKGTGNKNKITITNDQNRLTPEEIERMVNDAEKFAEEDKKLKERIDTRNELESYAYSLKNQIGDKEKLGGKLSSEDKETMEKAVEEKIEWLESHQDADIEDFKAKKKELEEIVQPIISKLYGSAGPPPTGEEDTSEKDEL
T3 sequence (G3I8R9 28-635 T229A/V461F): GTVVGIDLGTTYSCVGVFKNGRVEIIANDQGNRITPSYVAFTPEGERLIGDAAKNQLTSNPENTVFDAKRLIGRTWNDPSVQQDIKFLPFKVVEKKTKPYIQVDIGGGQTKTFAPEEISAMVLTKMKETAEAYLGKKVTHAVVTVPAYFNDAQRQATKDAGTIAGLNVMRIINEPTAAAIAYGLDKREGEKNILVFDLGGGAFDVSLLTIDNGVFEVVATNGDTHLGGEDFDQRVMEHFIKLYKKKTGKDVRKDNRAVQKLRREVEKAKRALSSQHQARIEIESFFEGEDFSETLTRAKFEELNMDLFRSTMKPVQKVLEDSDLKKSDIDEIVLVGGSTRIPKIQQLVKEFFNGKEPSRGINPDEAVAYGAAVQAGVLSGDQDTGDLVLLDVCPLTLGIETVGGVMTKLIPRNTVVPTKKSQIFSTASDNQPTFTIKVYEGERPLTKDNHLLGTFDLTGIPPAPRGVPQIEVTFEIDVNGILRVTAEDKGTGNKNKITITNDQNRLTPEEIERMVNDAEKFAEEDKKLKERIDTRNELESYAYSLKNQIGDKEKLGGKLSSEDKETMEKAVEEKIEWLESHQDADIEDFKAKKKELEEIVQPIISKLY

B1: Oregon Green-labelled FICD^NC (domain or fragment, human)
chain: CLEARAALNQALEMKRQGKREKAQKLFMHALKMDPDFVDALTEFGIFSEEDKDIIQADYLYTRALTISPYHEKALVNRDRTLPLVEEIDQRYFSIIDSKVKKVMSIPKGNSALRRVMEETYYHHIYHTVAIEGNTLTLSEIRHILETRYAVPGKSLEEQNEVIGMHAAMKYINTTLVSRIGSVTISDVLEIHRRVLGYVDPVEAGRFRTTQVLVGHHIPPHPQDVEKQMQEFVQWLNSEEAMNLHPVEFAALAHYKLVYIHPFIDGNGRTSRLLMNLILMQAGYPPITIRKEQRSDYYHVLEAANEGDVRPFIRFIAKCTETTLDTLLFATTEYSVALPEAQP
modifications: Oregon Green 488 on the added N-terminal cysteine (labelling efficiency 74%)
notes: N-terminal cysteine added for site-specific labelling, told in words only; human FICD (HYPE), aa 104-445 (purified 'as described above'); also called UK 2339; wild-type (red); source: E. coli, purified (Ni-NTA, anion exchange, SEC), labelled with Oregon Green 488-iodoacetamide; not shown: His6, N-terminal, cleaved; Smt3, N-terminal, cleaved
- Kd [1]: 1.2 nM

B2: FICD^H363A (aa 104-445) (domain or fragment, human, UniProt Q9BVA6 104-445, looked up)
chain: LEARAALNQALEMKRQGKREKAQKLFMHALKMDPDFVDALTEFGIFSEEDKDIIQADYLYTRALTISPYHEKALVNRDRTLPLVEEIDQRYFSIIDSKVKKVMSIPKGNSALRRVMEETYYHHIYHTVAIEGNTLTLSEIRHILETRYAVPGKSLEEQNEVIGMHAAMKYINTTLVSRIGSVTISDVLEIHRRVLGYVDPVEAGRFRTTQVLVGHHIPPHPQDVEKQMQEFVQWLNSEEAMNLHPVEFAALAHYKLVYIAPFIDGNGRTSRLLMNLILMQAGYPPITIRKEQRSDYYHVLEAANEGDVRPFIRFIAKCTETTLDTLLFATTEYSVALPEAQP
notes: human FICD (HYPE), aa 104-445; also called dFICD^H363A; source: E. coli T7 Express lysY/I^q, purified (Ni-NTA, on-column Ulp1 cleavage, anion exchange, SEC); not shown: His6, N-terminal, cleaved; Smt3, N-terminal, cleaved
- binding result [2]: binds
- fold increase in the dimer off rate with ATP (5 mM) against no nucleotide [3]: 3 fold
- binding result [4]: binds

B3: non-oxidised FICD^A252C-C421S (aa 104-445) (domain or fragment, human, UniProt Q9BVA6 104-445, looked up)
chain: B2 chain with A149C, A260H, C318S
notes: human FICD (HYPE), aa 104-445; also called non-disulphide-bonded FICD^A252C-C421S; UK 2219; source: E. coli, purified; separate preparation not subjected to oxidation with glutathione; not shown: His6, N-terminal, cleaved; Smt3, N-terminal, cleaved
- binding result [5]: binds

B4: FICD^K256S (aa 104-445) (domain or fragment, human, UniProt Q9BVA6 104-445, looked up)
chain: B2 chain with K153S, A260H
notes: human FICD (HYPE), aa 104-445; also called Lys256Ser; dimer relay mutant; source: E. coli T7 Express lysY/I^q, purified (Ni-NTA, on-column Ulp1 cleavage, anion exchange, SEC); not shown: His6, N-terminal, cleaved; Smt3, N-terminal, cleaved
- Kd [5]: < 400 nM

B5: FICD^K256A (aa 104-445) (domain or fragment, human, UniProt Q9BVA6 104-445, looked up)
chain: B2 chain with K153A, A260H
notes: human FICD (HYPE), aa 104-445; also called dimeric dimer relay mutant FICD^K256A; source: E. coli T7 Express lysY/I^q, purified (Ni-NTA, on-column Ulp1 cleavage, anion exchange, SEC); not shown: His6, N-terminal, cleaved; Smt3, N-terminal, cleaved
- binding result [6]: binds

B6: wild-type FICD (aa 104-445) (domain or fragment, human, UniProt Q9BVA6 104-445, looked up)
chain: B2 chain with A260H
notes: human FICD (HYPE), aa 104-445; Dimer by SEC, AUC and crystal structure; also called HYPE; dFICD; source: E. coli T7 Express lysY/I^q, purified (Ni-NTA, on-column Ulp1 cleavage, anion exchange, SEC); not shown: His6, N-terminal, cleaved; Smt3, N-terminal, cleaved
- binding result [5]: binds

B7: FICD^E242A (aa 104-445) (domain or fragment, human, UniProt Q9BVA6 104-445, looked up)
chain: B2 chain with E139A, A260H
notes: human FICD (HYPE), aa 104-445; also called dimer relay mutant; source: E. coli T7 Express lysY/I^q, purified (Ni-NTA, on-column Ulp1 cleavage, anion exchange, SEC); not shown: His6, N-terminal, cleaved; Smt3, N-terminal, cleaved
- Kd [5]: < 400 nM

B8: FICD^G299S (aa 104-445) (domain or fragment, human, UniProt Q9BVA6 104-445, looked up)
chain: B2 chain with G196S, A260H
notes: human FICD (HYPE), aa 104-445; Partially monomeric; also called Gly299Ser; source: E. coli T7 Express lysY/I^q, purified (Ni-NTA, on-column Ulp1 cleavage, anion exchange, SEC); not shown: His6, N-terminal, cleaved; Smt3, N-terminal, cleaved
- Kd [5]: 9500 nM

B9: FICD^C421S (aa 104-445) (domain or fragment, human, UniProt Q9BVA6 104-445, looked up)
chain: B2 chain with A260H, C318S
notes: human FICD (HYPE), aa 104-445; also called cysteine-free FICD^C421S; UK 2161; source: E. coli, purified by the protocol of the disulphide-linked dimers (Ni-NTA, oxidised glutathione, anion exchange, SEC); not shown: His6, N-terminal, cleaved; Smt3, N-terminal, cleaved
- binding result [5]: binds

B10: FICD^L258D-H363A (aa 104-445) (domain or fragment, human, UniProt Q9BVA6 104-445, looked up)
chain: B2 chain with L155D
notes: human FICD (HYPE), aa 104-445; also called mFICD^H363A; source: E. coli T7 Express lysY/I^q, purified (Ni-NTA, on-column Ulp1 cleavage, anion exchange, SEC); not shown: His6, N-terminal, cleaved; Smt3, N-terminal, cleaved
- binding result [2]: binds
- binding result [4]: binds

— publication doi:10.1101/595835, “An oligomeric state-dependent switch in FICD regulates AMPylation and deAMPylation of the chaperone BiP” (bioRxiv, 2019)
